Reference: patent publication US20250049939A1, “NOVEL FLT3 ANTIBODIES AND ANTIBODY-DRUG-CONJUGATES BASED THEREON, THERAPEUTIC METHODS AND USES THEREOF IN COMBINATION WITH TYROSINE KINASE INHIBITORS” (TUBULIS GmbH, priority 2021, published 2025)

Molecular target: human CD64 (high affinity Fc receptor, FCGR1) on cells (human) (UniProt P12314)
Test: cell-based or functional assay

Chain of human CD64 (high affinity Fc receptor, FCGR1) on cells (human) (P12314 16-374): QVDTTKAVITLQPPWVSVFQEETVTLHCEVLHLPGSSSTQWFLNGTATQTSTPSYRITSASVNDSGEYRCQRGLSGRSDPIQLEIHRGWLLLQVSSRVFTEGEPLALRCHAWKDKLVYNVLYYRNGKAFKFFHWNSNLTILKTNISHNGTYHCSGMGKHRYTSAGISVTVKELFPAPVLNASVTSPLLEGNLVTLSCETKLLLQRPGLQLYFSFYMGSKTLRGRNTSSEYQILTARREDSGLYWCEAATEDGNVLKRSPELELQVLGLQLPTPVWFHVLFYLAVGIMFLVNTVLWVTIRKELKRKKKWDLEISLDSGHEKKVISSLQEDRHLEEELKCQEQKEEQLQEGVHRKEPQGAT

## IgG1-ADC (palivizumab conjugated to MMAF) (antibody)
  IC50 of cytotoxicity in Ba/F3-pMIY-CD64 cells: 31.8 ng/ml
  IC50 of cytotoxicity in Ba/F3 cells expressing both FLT3 and CD64: 0.0783 µg/mL
  IC50 of cytotoxicity in CD64 positive leukemia and lymphoma cell lines: 0.0128 to 2 µg/mL
